Laboratory results published in patent US20250257122A1 (UNITED STATES OF AMERICA AS REPRESENTED BY THE SECRETARY OF …, published 2025).

Tests used:
[1] = target: T1, cotton leafroll dwarf virus (CLRDV) N-terminal readthrough domain (^NRTD), purified soluble construct (cotton leafroll dwarf virus (CLRDV), …); experiment: phage display panning and screening (legend of FIG. 3)
T1 construct: Expressed in E. coli; Calculated MW 26.410 kDa; also called CLRDV ^NRTD; CLRDV ^NRTD (TX)
T1 chain: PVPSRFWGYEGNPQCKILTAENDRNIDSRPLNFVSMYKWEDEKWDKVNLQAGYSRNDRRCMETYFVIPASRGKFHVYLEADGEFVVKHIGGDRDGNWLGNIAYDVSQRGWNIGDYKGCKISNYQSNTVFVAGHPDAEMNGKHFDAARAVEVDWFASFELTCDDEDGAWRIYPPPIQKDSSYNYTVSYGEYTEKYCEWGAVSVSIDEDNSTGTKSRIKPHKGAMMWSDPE
Protocol: (§1) Isolation and screening for specific single-chain antibodies was carried out as detailed by K. M. Chow, et al. (2019, “Immunization of Alpacas (Lama pacos) with Protein Antigens and Production of Antigen-specific Single Domain Antibodies,” J. Vis. Exp. (143), e58471. doi: 10.3791/58471). Briefly, alpacas were immunized with ˜400 μg of a mixture of both TX and AL CP or ^NRTD preparations that contained 50% (v/v) of adjuvant. Five subsequent weekly boosting injections were provided using ˜200 μg of the same mixture detailed above. Three to five days after the last injection, 50 mL of blood was collected, and lymphocytes purified. A cDNA library was prepared using oligodT primers and RNA extracted from lymphocytes. A bacteriophage library was obtained from the cDNA library by cloning with restriction enzymes into the phage display vector pMES4. Expression of the insert fused to gene III of the filamentous phage was used for production of the phage solution and single-domain antibody panning. After screening, two single-chain antibodies that recognized the CRLDV CP were identified and named B6 (SEQ ID NO: 8) and E3 (SEQ ID NO: 4) and three single-chain antibodies that recognized the CRLDV ^NRTD were identified and names C12 (SEQ ID NO: 12), A12 (SEQ ID NO: 16), and D12 (SEQ ID NO: 20), respectively.

[2] = target: T1, cotton leafroll dwarf virus (CLRDV) …; experiment: phage display panning and screening
Protocol: as §1

| Binder | binding result [1] | binding result [2] |
| --- | --- | --- |
| D12 camelid single-chain antibody (VHH, Alpaca VHH, cloned into pMES4 and expressed in E. coli; also called D12 single-chain antibody) VHH: QVQLQESGGGLVQAGDSLRLSCAASGRTFNSFAMGWFRQAPGKEREFVAAIKWNGVTTDYADSMKGRFTISRDNAKNTMYLQMNTLKPEDTAIYYCAAKPTWATTNGRPTAYDYWGQGTQVTVSS | binds | – |
| C12 camelid single-chain antibody (VHH, Alpaca VHH, cloned into pMES4 and expressed in E. coli; also called C12 single-chain antibody) VHH: QVQLQESGGGLAQAGDSLRLSCAASGRTFNSFAMGWFRQAPGKEREFVAAIKWNGVTTDYADSMRGRFTISRDNAKNTMYMQMNTLKPEDTAIYYCAAKPTWATTNGRPTAYDYWGQGTQVTVSS | – | binds |
| A12 camelid single-chain antibody (VHH, Alpaca VHH, cloned into pMES4 and expressed in E. coli; also called A12 single-chain antibody) VHH: QVQLQESGGGLAQAGDSLRLSCAASGRTFNSFAMGWFRQAPGKEREFVAAINWNGVTTDYADSMKGRFTISRDNAKNTMYLQMNTLKPEDTAIYYCAAKPTWATTNGRPAAYDYWGQGTQVTVSS | – | binds |
